Measured values taken from US20220332804A1 (CSL INNOVATION, published 2022).
Residue numbers refer to the chain shown, from its start.

Assays:
Assay in all cases: SPR, mAb captured, C2 mutant analyte;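 note: Anti-C2 mAbs captured on goat anti-human IgG Biacore CM5 chips, alanine or serine C2 surface mutants flowed over at 37 °C, double-referenced sensorgrams fitted to a 1:1 binding model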
human C2 L279A = molecular target: T1, human C2 L279A (human, UniProt P06681 21-752)
T1 sequence: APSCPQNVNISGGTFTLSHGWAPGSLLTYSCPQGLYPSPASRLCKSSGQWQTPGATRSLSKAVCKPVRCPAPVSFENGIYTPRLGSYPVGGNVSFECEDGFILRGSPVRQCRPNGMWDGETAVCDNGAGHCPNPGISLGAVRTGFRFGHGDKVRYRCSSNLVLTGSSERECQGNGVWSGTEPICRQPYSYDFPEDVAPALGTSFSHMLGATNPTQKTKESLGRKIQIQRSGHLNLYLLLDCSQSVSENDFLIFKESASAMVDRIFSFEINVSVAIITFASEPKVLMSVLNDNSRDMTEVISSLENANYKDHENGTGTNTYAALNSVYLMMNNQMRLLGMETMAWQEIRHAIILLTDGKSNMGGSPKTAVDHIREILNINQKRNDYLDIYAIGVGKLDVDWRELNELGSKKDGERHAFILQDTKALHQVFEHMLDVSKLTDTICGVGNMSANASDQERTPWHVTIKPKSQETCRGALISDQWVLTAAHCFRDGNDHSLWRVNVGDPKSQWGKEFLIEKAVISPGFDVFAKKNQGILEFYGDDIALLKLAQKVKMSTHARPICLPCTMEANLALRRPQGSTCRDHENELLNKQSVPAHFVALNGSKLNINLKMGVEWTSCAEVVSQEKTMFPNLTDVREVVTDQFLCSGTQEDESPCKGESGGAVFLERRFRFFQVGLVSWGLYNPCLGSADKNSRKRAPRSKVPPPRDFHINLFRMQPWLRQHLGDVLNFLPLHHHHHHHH
Method: (§1) Surface plasmon resonance (SPR, Biacore) was used for all binding affinity analyses. In brief, goat anti-human IgG was directly immobilised onto the carboxymethyl dextran surface of CM5 sensorchips to approximately 12,000 RU using standard NHS/EDC chemistry at pH 5. The immobilised antibody surface was pre-conditioned with ten injections of polyclonal human IgG (Privigen 60 s) prepared at 1 μg/mL. Ligands (anti-C2 mAbs) were captured at the beginning of each cycle as described below. An adjacent spot or flow cell in which only Polyclonal IgG was capture was used as a reference surface. The goat anti-human IgG Fc antibody surface was regenerate in 100 mM H3PO4, injected for 45 seconds at the end of each cycle. Experiments were performed at 37° C. and the flow rate of each experiment was kept constant at 30 μL/min.
(§2) Sensogram data was double-referenced against a reference anti-IgG surface (i.e. minus anti-C2 mAb) and blank buffer injections obtained within each experiment. The binding data was fit to 1:1 (kinetic or steady-state) model using local Rmax and null refraction index (RI=0) when appropriate. Buffers and solutions were filtered (0.22 μm) prior to use.

human C2 A326S = molecular target: T2, human C2 A326S (human, UniProt P06681 21-752)
T2 sequence: T1 sequence with A259L, A306S
Method: as §1, §2

human C2 G427A = molecular target: T3, human C2 G427A (human, UniProt P06681 21-752)
T3 sequence: T1 sequence with A259L, G407A
Method: as §1, §2

human C2 A436S = molecular target: T4, human C2 A436S (human, UniProt P06681 21-752)
T4 sequence: T1 sequence with A259L, A416S
Method: as §1, §2

Kd (human C2 L279A): 240 nM
Kd (human C2 A326S): 45.5 nM
Kd (human C2 G427A): 8.8 nM
Kd (human C2 A436S): 31.2 nM
B1: RF16-214 (antibody, V domains shown)
VH: EVQLLESGGGLVQPGGSLRLSCAASGFTFSWYQMMWVRQAPGKGLEWVSRIYPSGGGTAYADSVKGRFTISRDNSKNTLYLQMNSLRAEDTAVYYCARDAGYGDNWGQGTLVTVSS
VL: QSALTQPPSVSVSPGQTASITCSGDKLGEKYASWYQQKAGQSPVMVIYQDRKRPSGIPERFSGSNSGNTATLTISGTQAMDEADYYCQAWDTRAVVFGGGTKLTVLG
